According to publication PMC5121590, “Antibody-antigen kinetics constrain intracellular humoral immunity” (Scientific Reports, 2016):

Columns and labels:
[1] = biological target: T1, recombinant AdV5 hexon protein (Human adenovirus C serotype 5 (HAdV-5), UniProt P04133); experiment: cell-based or functional assay
[2] = biological target: T1, recombinant AdV5 hexon protein; experiment: SPR; details: both partners purified
[3] = biological target: T1, recombinant AdV5 hexon protein; experiment: SPR; details: both partners purified; remark: listed apart in the source
[4] = biological target: the molecule itself; experiment: crystal structure; 9C12 Fab and hexon mixed 1:1 to a 5 mg/ml complex; crystals in 15% MPD, 5% PEG 4K, 0.1 M imidazole pH 8; 2.7 Å

B1: recombinant humanized IgG1 version of 9C12 (h9C12), wild type (antibody, V domains shown)
VH: VQLKQSGPGLLQPSQRLSITCTVSGFSLGRYGVHWIRQSPGKGLEWLGVIWRGGTTDYNAVFMSRLSINKDDSKSQVFFTMNSLRPDDTAIYYCARQGSNFPLAYWGQGTLVTVSA
VL: NIVMTQTPKFLLVSIGDSITITCKASQSVTNDAAWYQKKPGQSPQLLIYQASTRYTGVPDRFSGSGYGTDFTFTISAVQAEDLAVYFCHQDYSSPLTFGAGTKLELK
[1]
  neutralization of Adv5 infection in HEK293T cells: ~25 fold

B2: 9C12 Fab (original mouse format, SPR) (Fab, V domains shown)
VH: VQLKQSGPGLLQPSQRLSITCTVSGFSLGRYGVHWIRQSPGKGLEWLGVIWRGGTTDYNAVFMSRLSINKDDSKSQVFFTMNSLRPDDTAIYYCARQGSNFPLAYWGQGTLVTVSA
VL: NIVMTQTPKFLLVSIGDSITITCKASQSVTNDAAWYQKKPGQSPQLLIYQASTRYTGVPDRFSGSGYGTDFTFTISAVQAEDLAVYFCHQDYSSPLTFGAGTKLELK
notes: also called mouse WT 9C12; source: gene fragment synthesized as cDNA; host stated only for the h9C12 variants (HEK293E)
[2]
  Kd: 1 nM
  koff: 0.00045 s⁻¹
  kon: 447000 M⁻¹ s⁻¹

B3: h9C12 Fab G98C/S99H (Fab, V domains shown)
VH: VQLKQSGPGLLQPSQRLSITCTVSGFSLGRYGVHWIRQSPGKGLEWLGVIWRGGTTDYNAVFMSRLSINKDDSKSQVFFTMNSLRPDDTAIYYCARQCHNFPLAYWGQGTLVTVSA
VL: NIVMTQTPKFLLVSIGDSITITCKASQSVTNDAAWYQKKPGQSPQLLIYQASTRYTGVPDRFSGSGYGTDFTFTISAVQAEDLAVYFCHQDYSSPLTFGAGTKLELK
notes: source: HEK293E, transiently co-transfected, purified (CaptureSelect CH1, SEC Superdex 75)
[2]
  Kd: 288 nM
  koff: 0.0052 s⁻¹
  kon: 18000 M⁻¹ s⁻¹

B4: h9C12 Fab Q97A/S99A/F101A/L103A (Fab, V domains shown)
VH: VQLKQSGPGLLQPSQRLSITCTVSGFSLGRYGVHWIRQSPGKGLEWLGVIWRGGTTDYNAVFMSRLSINKDDSKSQVFFTMNSLRPDDTAIYYCARAGANAPAAYWGQGTLVTVSA
VL: NIVMTQTPKFLLVSIGDSITITCKASQSVTNDAAWYQKKPGQSPQLLIYQASTRYTGVPDRFSGSGYGTDFTFTISAVQAEDLAVYFCHQDYSSPLTFGAGTKLELK
notes: also called combined alanine mutations in H3; source: HEK293E, transiently co-transfected, purified (CaptureSelect CH1, SEC Superdex 75)
[3]
  binding result: no binding

B5: h9C12 Fab Q97A (Fab, V domains shown)
VH: VQLKQSGPGLLQPSQRLSITCTVSGFSLGRYGVHWIRQSPGKGLEWLGVIWRGGTTDYNAVFMSRLSINKDDSKSQVFFTMNSLRPDDTAIYYCARAGSNFPLAYWGQGTLVTVSA
VL: NIVMTQTPKFLLVSIGDSITITCKASQSVTNDAAWYQKKPGQSPQLLIYQASTRYTGVPDRFSGSGYGTDFTFTISAVQAEDLAVYFCHQDYSSPLTFGAGTKLELK
notes: as for B3
[2]
  Kd: 462 nM

B6: h9C12 Fab N100A (Fab, V domains shown)
VH: VQLKQSGPGLLQPSQRLSITCTVSGFSLGRYGVHWIRQSPGKGLEWLGVIWRGGTTDYNAVFMSRLSINKDDSKSQVFFTMNSLRPDDTAIYYCARQGSAFPLAYWGQGTLVTVSA
VL: NIVMTQTPKFLLVSIGDSITITCKASQSVTNDAAWYQKKPGQSPQLLIYQASTRYTGVPDRFSGSGYGTDFTFTISAVQAEDLAVYFCHQDYSSPLTFGAGTKLELK
notes: as for B3
[2]
  Kd: 0.9 nM
  koff: 0.00085 s⁻¹
  kon: 889000 M⁻¹ s⁻¹

B7: h9C12 Fab G53P (Fab, V domains shown)
VH: VQLKQSGPGLLQPSQRLSITCTVSGFSLGRYGVHWIRQSPGKGLEWLGVIWRPGTTDYNAVFMSRLSINKDDSKSQVFFTMNSLRPDDTAIYYCARQGSNFPLAYWGQGTLVTVSA
VL: NIVMTQTPKFLLVSIGDSITITCKASQSVTNDAAWYQKKPGQSPQLLIYQASTRYTGVPDRFSGSGYGTDFTFTISAVQAEDLAVYFCHQDYSSPLTFGAGTKLELK
notes: as for B3
[2]
  Kd: 330 nM
  koff: 0.079 s⁻¹
  kon: 239000 M⁻¹ s⁻¹

B8: h9C12 Fab G32P (Fab, V domains shown)
VH: VQLKQSGPGLLQPSQRLSITCTVSGFSLGRYPVHWIRQSPGKGLEWLGVIWRGGTTDYNAVFMSRLSINKDDSKSQVFFTMNSLRPDDTAIYYCARQGSNFPLAYWGQGTLVTVSA
VL: NIVMTQTPKFLLVSIGDSITITCKASQSVTNDAAWYQKKPGQSPQLLIYQASTRYTGVPDRFSGSGYGTDFTFTISAVQAEDLAVYFCHQDYSSPLTFGAGTKLELK
notes: as for B3
[3]
  binding result: no binding

B9: h9C12 Fab W51E (Fab, V domains shown)
VH: VQLKQSGPGLLQPSQRLSITCTVSGFSLGRYGVHWIRQSPGKGLEWLGVIERGGTTDYNAVFMSRLSINKDDSKSQVFFTMNSLRPDDTAIYYCARQGSNFPLAYWGQGTLVTVSA
VL: NIVMTQTPKFLLVSIGDSITITCKASQSVTNDAAWYQKKPGQSPQLLIYQASTRYTGVPDRFSGSGYGTDFTFTISAVQAEDLAVYFCHQDYSSPLTFGAGTKLELK
notes: as for B3
[2]
  Kd: 16900 nM

B10: h9C12 Fab G29R/R30S (Fab, V domains shown)
VH: VQLKQSGPGLLQPSQRLSITCTVSGFSLRSYGVHWIRQSPGKGLEWLGVIWRGGTTDYNAVFMSRLSINKDDSKSQVFFTMNSLRPDDTAIYYCARQGSNFPLAYWGQGTLVTVSA
VL: NIVMTQTPKFLLVSIGDSITITCKASQSVTNDAAWYQKKPGQSPQLLIYQASTRYTGVPDRFSGSGYGTDFTFTISAVQAEDLAVYFCHQDYSSPLTFGAGTKLELK
notes: as for B3
[2]
  Kd: 92.8 nM
  koff: 0.0049 s⁻¹
  kon: 53000 M⁻¹ s⁻¹

B11: h9C12 Fab G98P (Fab, V domains shown)
VH: VQLKQSGPGLLQPSQRLSITCTVSGFSLGRYGVHWIRQSPGKGLEWLGVIWRGGTTDYNAVFMSRLSINKDDSKSQVFFTMNSLRPDDTAIYYCARQPSNFPLAYWGQGTLVTVSA
VL: NIVMTQTPKFLLVSIGDSITITCKASQSVTNDAAWYQKKPGQSPQLLIYQASTRYTGVPDRFSGSGYGTDFTFTISAVQAEDLAVYFCHQDYSSPLTFGAGTKLELK
notes: as for B3
[3]
  binding result: no binding

B12: h9C12 Fab T55S (Fab, V domains shown)
VH: VQLKQSGPGLLQPSQRLSITCTVSGFSLGRYGVHWIRQSPGKGLEWLGVIWRGGSTDYNAVFMSRLSINKDDSKSQVFFTMNSLRPDDTAIYYCARQGSNFPLAYWGQGTLVTVSA
VL: NIVMTQTPKFLLVSIGDSITITCKASQSVTNDAAWYQKKPGQSPQLLIYQASTRYTGVPDRFSGSGYGTDFTFTISAVQAEDLAVYFCHQDYSSPLTFGAGTKLELK
notes: as for B3
[2]
  Kd: 1.2 nM
  koff: 0.00095 s⁻¹
  kon: 795000 M⁻¹ s⁻¹

B13: h9C12 Fab (wild type) (Fab, V domains shown)
VH: VQLKQSGPGLLQPSQRLSITCTVSGFSLGRYGVHWIRQSPGKGLEWLGVIWRGGTTDYNAVFMSRLSINKDDSKSQVFFTMNSLRPDDTAIYYCARQGSNFPLAYWGQGTLVTVSA
VL: NIVMTQTPKFLLVSIGDSITITCKASQSVTNDAAWYQKKPGQSPQLLIYQASTRYTGVPDRFSGSGYGTDFTFTISAVQAEDLAVYFCHQDYSSPLTFGAGTKLELK
notes: also called WT h9C12; humanized 9C12; source: HEK293E, transiently co-transfected, purified (CaptureSelect CH1, SEC Superdex 75)
[2]
  Kd: 0.8 nM
  koff: 0.00052 s⁻¹
  kon: 635000 M⁻¹ s⁻¹

B14: h9C12 Fab Q97R (Fab, V domains shown)
VH: VQLKQSGPGLLQPSQRLSITCTVSGFSLGRYGVHWIRQSPGKGLEWLGVIWRGGTTDYNAVFMSRLSINKDDSKSQVFFTMNSLRPDDTAIYYCARRGSNFPLAYWGQGTLVTVSA
VL: NIVMTQTPKFLLVSIGDSITITCKASQSVTNDAAWYQKKPGQSPQLLIYQASTRYTGVPDRFSGSGYGTDFTFTISAVQAEDLAVYFCHQDYSSPLTFGAGTKLELK
notes: as for B3
[3]
  binding result: no binding

B15: full-length Adv5 hexon protein (natural protein)
chain: MATPSMMPQWSYMHISGQDASEYLSPGLVQFARATETYFSLNNKFRNPTVAPTHDVTTDRSQRLTLRFIPVDREDTAYSYKARFTLAVGDNRVLDMASTYFDIRGVLDRGPTFKPYSGTAYNALAPKGAPNPCEWDEAATALEINLEEEDDDNEDEVDEQAEQQKTHVFGQAPYSGINITKEGIQIGVEGQTPKYADKTFQPEPQIGESQWYETEINHAAGRVLKKTTPMKPCYGSYAKPTNENGGQGILVKQQNGKLESQVEMQFFSTTEATAGNGDNLTPKVVLYSEDVDIETPDTHISYMPTIKEGNSRELMGQQSMPNRPNYIAFRDNFIGLMYYNSTGNMGVLAGQASQLNAVVDLQDRNTELSYQLLLDSIGDRTRYFSMWNQAVDSYDPDVRIIENHGTEDELPNYCFPLGGVINTETLTKVKPKTGQENGWEKDATEFSDKNEIRVGNNFAMEINLNANLWRNFLYSNIALYLPDKLKYSPSNVKISDNPNTYDYMNKRVVAPGLVDCYINLGARWSLDYMDNVNPFNHHRNAGLRYRSMLLGNGRYVPFHIQVPQKFFAIKNLLLLPGSYTYEWNFRKDVNMVLQSSLGNDLRVDGASIKFDSICLYATFFPMAHNTASTLEAMLRNDTNDQSFNDYLSAANMLYPIPANATNVPISIPSRNWAAFRGWAFTRLKTKETPSLGSGYDPYYTYSGSIPYLDGTFYLNHTFKKVAITFDSSVSWPGNDRLLTPNEFEIKRSVDGEGYNVAQCNMTKDWFLVQMLANYNIGYQGFYIPESYKDRMYSFFRNFQPMSRQVVDDTKYKDYQQVGILHQHNNSGFVGYLAPTMREGQAYPANFPYPLIGKTAVDSITQKKFLCDRTLWRIPFSSNFMSMGALTDLGQNLLYANSAHALDMTFEVDPMDEPTLLYVLFEVFDVVRVHRPHRGVIETVYLRTPFSAGNATT
notes: also called human adenovirus 5 hexon; source: purified from Adv5-infected cells (CsCl-gradient, size exclusion)
[4]
  binding result: binds
